{
  "source": "patent US20180125988",
  "system": "AC1254 (CCD1-BSRS1-AE713)",
  "sequence (chain, as listed by the source)": "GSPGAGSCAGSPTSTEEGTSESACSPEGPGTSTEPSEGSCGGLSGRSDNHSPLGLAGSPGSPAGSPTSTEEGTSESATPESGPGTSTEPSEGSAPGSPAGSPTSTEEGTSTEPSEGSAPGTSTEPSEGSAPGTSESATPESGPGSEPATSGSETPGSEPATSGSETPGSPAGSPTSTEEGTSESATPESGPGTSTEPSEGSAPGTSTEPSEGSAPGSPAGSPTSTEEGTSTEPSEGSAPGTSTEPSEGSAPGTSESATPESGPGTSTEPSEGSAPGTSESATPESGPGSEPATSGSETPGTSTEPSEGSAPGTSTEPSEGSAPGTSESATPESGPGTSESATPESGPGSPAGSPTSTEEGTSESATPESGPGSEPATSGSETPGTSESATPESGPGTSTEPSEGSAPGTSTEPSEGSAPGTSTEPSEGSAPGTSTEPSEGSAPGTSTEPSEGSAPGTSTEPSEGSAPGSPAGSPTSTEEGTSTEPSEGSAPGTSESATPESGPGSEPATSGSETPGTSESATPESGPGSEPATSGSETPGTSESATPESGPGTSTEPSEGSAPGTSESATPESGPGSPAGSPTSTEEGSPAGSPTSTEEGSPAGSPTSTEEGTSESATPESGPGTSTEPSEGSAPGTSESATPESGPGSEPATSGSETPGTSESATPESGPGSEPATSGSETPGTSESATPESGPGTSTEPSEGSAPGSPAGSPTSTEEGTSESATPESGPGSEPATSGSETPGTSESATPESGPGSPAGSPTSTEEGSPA",
  "data": [
    {"substance": "recombinant human u-plasminogen activator (uPA)", "values": [
      {"measurement": "proteolytic cleavage at the PCM (SDS-PAGE, C4 RP-HPLC); enzyme:substrate 1:12.5, 2 h, 37 C", "value": "all proteases tested here cleaved the construct as intended, with varying degree of catalytic efficiency"}
    ]},
    {"substance": "recombinant mouse MMP-2", "values": [
      {"measurement": "proteolytic cleavage at the PCM (SDS-PAGE, C4 RP-HPLC); enzyme:substrate 1:680, 2 h, 37 C", "value": "all proteases tested here cleaved the construct as intended, with varying degree of catalytic efficiency"}
    ]}
  ]
}
